Experimental data: US20220144956A1 (published 2022)

B1: H1 L1.47 XENP34610 (antibody, V domains shown)
VH: QLQVQESGPGLVKPSETLSLTCTVSGGSISNSYFSWGWIRQPPGKGLEWIGSFYYGEKTYYNPSLKSRATISIDTSKSQFSLKLSSVTAADTAVYYCPRGPTMIRGVIDSWGQGTLVTVSS
VL: EIVLTQSPATLSLSPGERATLSCRASQSVRSYLAWYQQKPGQAPRLLIYDASNRATGIPARFSGSGSGTDFTLTISSLEPEDFAVYYCQQRSQWPPTFGQGTKVEIK
B2: H1 L1.61 XENP34624 (antibody, V domains shown)
VH: QLQVQESGPGLVKPSETLSLTCTVSGGSISNSYFSWGWIRQPPGKGLEWIGSFYYGEKTYYNPSLKSRATISIDTSKSQFSLKLSSVTAADTAVYYCPRGPTMIRGVIDSWGQGTLVTVSS
VL: EIVLTQSPATLSLSPGERATLSCRASQSVRSYLAWYQQKPGQAPRLLIYDASNRATGIPARFSGSGSGTDFTLTISSLEPEDFAVYYCQQRSNWPPTFGQGTKLEIK
B3: H1 L1.45 XENP34608 (antibody, V domains shown)
VH: QLQVQESGPGLVKPSETLSLTCTVSGGSISNSYFSWGWIRQPPGKGLEWIGSFYYGEKTYYNPSLKSRATISIDTSKSQFSLKLSSVTAADTAVYYCPRGPTMIRGVIDSWGQGTLVTVSS
VL: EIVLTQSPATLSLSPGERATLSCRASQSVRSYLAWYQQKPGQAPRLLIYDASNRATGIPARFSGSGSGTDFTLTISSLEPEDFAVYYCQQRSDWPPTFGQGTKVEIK
B4: TBRII-A_H1.29_L1 (antibody, V domains shown)
VH: QLQVQESGPGLVKPSETLSLTCTVSGGSISNSYFTWGWIRQPPGKGLEWIGSFYYGEKTYYNPSLKSRATISIDTSKSQFSLKLSSVTAADTAVYYCPRGPTMIRGVIDSWGQGTLVTVSS
VL: EIVLTQSPATLSLSPGERATLSCRASQSVRSYLAWYQQKPGQAPRLLIYDASNRATGIPARFSGSGSGTDFTLTISSLEPEDFAVYYCQQRSNWPPTFGQGTKVEIK
B5: XENP37814 TBRII-A_H1.189_L1.53 (antibody, V domains shown)
VH: QLQVQESGPGLVKPSETLSLTCTVSGGSISSSYFSWGWIRQPPGKGLEWIGSFYYGGKTYYNPSLKSRATISIDTSKNQFSLKLSSVTAADTAVYYCARGPTLIRGVIDSWGQGTLVTVSS
VL: EIVLTQSPATLSLSPGERATLSCRASQSVRSYLAWYQQKPGQAPRLLIYDASNRATGIPARFSGSGSGTDFTLTISSLEPEDFAVYYCQQRSNYPPTFGQGTKVEIK
B6: XENP37817 TBRII-A_H1.272_L1 (antibody, V domains shown)
VH: QLQVQESGPGLVKPSETLSLTCTVSGGSISSSYFSWGWIRQPPGKGLEWIGSFNYGGKTYYNPSLKSRATISIDTSKNQFSLKLSSVTAADTAVYYCARGPTTIRGVIDSWGQGTLVTVSS
VL: EIVLTQSPATLSLSPGERATLSCRASQSVRSYLAWYQQKPGQAPRLLIYDASNRATGIPARFSGSGSGTDFTLTISSLEPEDFAVYYCQQRSNWPPTFGQGTKVEIK
B7: XENP37813 TBRII-A_H1.270_L1 (antibody, V domains shown)
VH: QLQVQESGPGLVKPSETLSLTCTVSGGSISSSYFSWGWIRQPPGKGLEWIGSFNYGGKTYYNPSLKSRATISIDTSKNQFSLKLSSVTAADTAVYYCARGPTLIRGVIDSWGQGTLVTVSS
VL: EIVLTQSPATLSLSPGERATLSCRASQSVRSYLAWYQQKPGQAPRLLIYDASNRATGIPARFSGSGSGTDFTLTISSLEPEDFAVYYCQQRSNWPPTFGQGTKVEIK
B8: XENP37818 TBRII-A_H1.190_L1.53 (antibody, V domains shown)
VH: QLQVQESGPGLVKPSETLSLTCTVSGGSISSSYFSWGWIRQPPGKGLEWIGSFYYGGKTYYNPSLKSRATISIDTSKNQFSLKLSSVTAADTAVYYCARGPTTIRGVIDSWGQGTLVTVSS
VL: EIVLTQSPATLSLSPGERATLSCRASQSVRSYLAWYQQKPGQAPRLLIYDASNRATGIPARFSGSGSGTDFTLTISSLEPEDFAVYYCQQRSNYPPTFGQGTKVEIK
B9: TBRII-A_H1.36_L1 (antibody, V domains shown)
VH: QLQVQESGPGLVKPSETLSLTCTVSGGSISNSYFSWSWIRQPPGKGLEWIGSFYYGEKTYYNPSLKSRATISIDTSKSQFSLKLSSVTAADTAVYYCPRGPTMIRGVIDSWGQGTLVTVSS
VL: EIVLTQSPATLSLSPGERATLSCRASQSVRSYLAWYQQKPGQAPRLLIYDASNRATGIPARFSGSGSGTDFTLTISSLEPEDFAVYYCQQRSNWPPTFGQGTKVEIK
B10: TBRII-A_H1.30_L1 (antibody, V domains shown)
VH: QLQVQESGPGLVKPSETLSLTCTVSGGSISNSYFYWGWIRQPPGKGLEWIGSFYYGEKTYYNPSLKSRATISIDTSKSQFSLKLSSVTAADTAVYYCPRGPTMIRGVIDSWGQGTLVTVSS
VL: EIVLTQSPATLSLSPGERATLSCRASQSVRSYLAWYQQKPGQAPRLLIYDASNRATGIPARFSGSGSGTDFTLTISSLEPEDFAVYYCQQRSNWPPTFGQGTKVEIK
B11: XENP34306 H1.1 L1 (antibody, V domains shown)
VH: QLQVQESGPGLVKPSETLSLTCTVSGGSISNSYFSWGWIRQPPGKGLEWIGSFYYGEKTYYNPSLKSRATISIDTSKSQFSLKLSSVTAADTAVYYCPRGPTVIRGVIDSWGQGTLVTVSS
VL: EIVLTQSPATLSLSPGERATLSCRASQSVRSYLAWYQQKPGQAPRLLIYDASNRATGIPARFSGSGSGTDFTLTISSLEPEDFAVYYCQQRSNWPPTFGQGTKVEIK
B12: XENP35128 H1.50 L1 (antibody, V domains shown)
VH: QLQVQESGPGLVKPSETLSLTCTVSGGSISNSYFSWGWIRQPPGKGLEWIGSFKYGEKTYYNPSLKSRATISIDTSKSQFSLKLSSVTAADTAVYYCPRGPTMIRGVIDSWGQGTLVTVSS
VL: EIVLTQSPATLSLSPGERATLSCRASQSVRSYLAWYQQKPGQAPRLLIYDASNRATGIPARFSGSGSGTDFTLTISSLEPEDFAVYYCQQRSNWPPTFGQGTKVEIK
B13: XENP35122 H1.33 L1 (antibody, V domains shown)
VH: QLQVQESGPGLVKPSETLSLTCTVSGGSISNSYFSWAWIRQPPGKGLEWIGSFYYGEKTYYNPSLKSRATISIDTSKSQFSLKLSSVTAADTAVYYCPRGPTMIRGVIDSWGQGTLVTVSS
VL: EIVLTQSPATLSLSPGERATLSCRASQSVRSYLAWYQQKPGQAPRLLIYDASNRATGIPARFSGSGSGTDFTLTISSLEPEDFAVYYCQQRSNWPPTFGQGTKVEIK
B14: XENP35120 H1.29 L1 (antibody, V domains shown)
VH: QLQVQESGPGLVKPSETLSLTCTVSGGSISNSYFTWGWIRQPPGKGLEWIGSFYYGEKTYYNPSLKSRATISIDTSKSQFSLKLSSVTAADTAVYYCPRGPTMIRGVIDSWGQGTLVTVSS
VL: EIVLTQSPATLSLSPGERATLSCRASQSVRSYLAWYQQKPGQAPRLLIYDASNRATGIPARFSGSGSGTDFTLTISSLEPEDFAVYYCQQRSNWPPTFGQGTKVEIK
B15: XENP35127 H1.48 L1 (antibody, V domains shown)
VH: QLQVQESGPGLVKPSETLSLTCTVSGGSISNSYFSWGWIRQPPGKGLEWIGSFDYGEKTYYNPSLKSRATISIDTSKSQFSLKLSSVTAADTAVYYCPRGPTMIRGVIDSWGQGTLVTVSS
VL: EIVLTQSPATLSLSPGERATLSCRASQSVRSYLAWYQQKPGQAPRLLIYDASNRATGIPARFSGSGSGTDFTLTISSLEPEDFAVYYCQQRSNWPPTFGQGTKVEIK
B16: XENP35123 H1.36 L1 (antibody, V domains shown)
VH: QLQVQESGPGLVKPSETLSLTCTVSGGSISNSYFSWSWIRQPPGKGLEWIGSFYYGEKTYYNPSLKSRATISIDTSKSQFSLKLSSVTAADTAVYYCPRGPTMIRGVIDSWGQGTLVTVSS
VL: EIVLTQSPATLSLSPGERATLSCRASQSVRSYLAWYQQKPGQAPRLLIYDASNRATGIPARFSGSGSGTDFTLTISSLEPEDFAVYYCQQRSNWPPTFGQGTKVEIK
B17: XENP35124 H1.37 L1 (antibody, V domains shown)
VH: QLQVQESGPGLVKPSETLSLTCTVSGGSISNSYFSWGWVRQPPGKGLEWIGSFYYGEKTYYNPSLKSRATISIDTSKSQFSLKLSSVTAADTAVYYCPRGPTMIRGVIDSWGQGTLVTVSS
VL: EIVLTQSPATLSLSPGERATLSCRASQSVRSYLAWYQQKPGQAPRLLIYDASNRATGIPARFSGSGSGTDFTLTISSLEPEDFAVYYCQQRSNWPPTFGQGTKVEIK
B18: XENP35121 H1.30 L1 (antibody, V domains shown)
VH: QLQVQESGPGLVKPSETLSLTCTVSGGSISNSYFYWGWIRQPPGKGLEWIGSFYYGEKTYYNPSLKSRATISIDTSKSQFSLKLSSVTAADTAVYYCPRGPTMIRGVIDSWGQGTLVTVSS
VL: EIVLTQSPATLSLSPGERATLSCRASQSVRSYLAWYQQKPGQAPRLLIYDASNRATGIPARFSGSGSGTDFTLTISSLEPEDFAVYYCQQRSNWPPTFGQGTKVEIK
B19: XENP35126 H1.56 L1 (antibody, V domains shown)
VH: QLQVQESGPGLVKPSETLSLTCTVSGGSISNSYFSWGWIRQPPGKGLEWIGSFYYGGKTYYNPSLKSRATISIDTSKSQFSLKLSSVTAADTAVYYCPRGPTMIRGVIDSWGQGTLVTVSS
VL: EIVLTQSPATLSLSPGERATLSCRASQSVRSYLAWYQQKPGQAPRLLIYDASNRATGIPARFSGSGSGTDFTLTISSLEPEDFAVYYCQQRSNWPPTFGQGTKVEIK
B20: XENP35119 H1.21 L1 (antibody, V domains shown)
VH: QLQVQESGPGLVKPSETLSLTCTVSGGSISNSAFSWGWIRQPPGKGLEWIGSFYYGEKTYYNPSLKSRATISIDTSKSQFSLKLSSVTAADTAVYYCPRGPTMIRGVIDSWGQGTLVTVSS
VL: EIVLTQSPATLSLSPGERATLSCRASQSVRSYLAWYQQKPGQAPRLLIYDASNRATGIPARFSGSGSGTDFTLTISSLEPEDFAVYYCQQRSNWPPTFGQGTKVEIK
B21: XENP35125 H1.51 L1 (antibody, V domains shown)
VH: QLQVQESGPGLVKPSETLSLTCTVSGGSISNSYFSWGWIRQPPGKGLEWIGSFNYGEKTYYNPSLKSRATISIDTSKSQFSLKLSSVTAADTAVYYCPRGPTMIRGVIDSWGQGTLVTVSS
VL: EIVLTQSPATLSLSPGERATLSCRASQSVRSYLAWYQQKPGQAPRLLIYDASNRATGIPARFSGSGSGTDFTLTISSLEPEDFAVYYCQQRSNWPPTFGQGTKVEIK
B22: XENP34305 H1 L1 (antibody, V domains shown)
VH: QLQVQESGPGLVKPSETLSLTCTVSGGSISNSYFSWGWIRQPPGKGLEWIGSFYYGEKTYYNPSLKSRATISIDTSKSQFSLKLSSVTAADTAVYYCPRGPTMIRGVIDSWGQGTLVTVSS
VL: EIVLTQSPATLSLSPGERATLSCRASQSVRSYLAWYQQKPGQAPRLLIYDASNRATGIPARFSGSGSGTDFTLTISSLEPEDFAVYYCQQRSNWPPTFGQGTKVEIK

Target: T1, human TGFßRII (antigen of the Octet experiments) (human, UniProt P37173 23-166)
T1 sequence (P37173 23-166): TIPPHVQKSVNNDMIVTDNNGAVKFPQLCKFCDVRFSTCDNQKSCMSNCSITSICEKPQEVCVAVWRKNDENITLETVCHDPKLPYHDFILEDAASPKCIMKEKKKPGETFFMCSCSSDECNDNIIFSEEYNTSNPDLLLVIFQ
Experiment: BLI (Octet)

Point of comparison: B3, Kd 0.604 nM. Against it:
- B1 — 2-fold lower, 0.296 nM
- B2 — within 1.5-fold, 0.642 nM

Target: T1, human TGFßRII (antigen of the Octet …)
Experiment: not given

Point of comparison: B10, Kd 14 nM. Against it:
- B4 — 3.3-fold lower, 4.2 nM
- B5 — 4.2-fold higher, 58.9 nM
- B6 — 4.2-fold higher, 58.2 nM
- B7 — 2.3-fold higher, 31.6 nM
- B8 — 7.8-fold higher, 109 nM
- B9 — 4-fold lower, 3.5 nM

Target: T1, human TGFßRII (antigen of the Octet …)
Experiment: Octet

Point of comparison: B19, Kd 3.36 nM. Against it:
- B11 — within 1.5-fold, 4.02 nM
- B12 — 9.3-fold higher, 31.4 nM
- B13 — within 1.5-fold, 3.42 nM
- B14 — within 1.5-fold, 4.6 nM
- B15 — 10-fold higher, 35 nM
- B16 — 1.5-fold higher, 5.1 nM
- B17 — within 1.5-fold, 2.63 nM
- B18 — 3.1-fold higher, 10.3 nM
- B20 — within 1.5-fold, 2.79 nM
- B21 — 6.8-fold higher, 23 nM
- B22 — within 1.5-fold, 2.92 nM
